# Source: US20130157953A1, “TREATMENT OF CARDIAC CONDITIONS” (Zealand Pharma A/S, priority 2010, published 2013)
# Numbered stars: 1 amine (or outer) side, 2 acyl side, 3 side chain; on linkers, the order of the positions; unused ones are H or OH. Square brackets hold non-standard residues; d marks the D form. Side chains are listed from the residue outwards. * marks the point of attachment. γGlu = O=C(O)[C@H](CCC(=O)[*:2])N[*:1]; Palmitoyl = CCCCCCCCCCCCCCCC(=O)*; Aib = CC(C)(N)C(=O)O
# B1: Compound 213 (peptide)
# peptide: H-H[Aib]QGTFTSDYSKYLDSKAAK([γGlu-Palmitoyl])DFVAWLLRA-NH2
# SMILES: CCCCCCCCCCCCCCCC(=O)N[C@@H](CCC(=O)NCCCC[C@H](NC(=O)[C@H](C)NC(=O)[C@H](C)NC(=O)[C@H](CCCCN)NC(=O)[C@H](CO)NC(=O)[C@H](CC(=O)O)NC(=O)[C@H](CC(C)C)NC(=O)[C@H](Cc1ccc(O)cc1)NC(=O)[C@H](CCCCN)NC(=O)[C@H](CO)NC(=O)[C@H](Cc1ccc(O)cc1)NC(=O)[C@H](CC(=O)O)NC(=O)[C@H](CO)NC(=O)[C@@H](NC(=O)[C@H](Cc1ccccc1)NC(=O)[C@@H](NC(=O)CNC(=O)[C@H](CCC(N)=O)NC(=O)C(C)(C)NC(=O)[C@@H](N)Cc1c[nH]cn1)[C@@H](C)O)[C@@H](C)O)C(=O)N[C@@H](CC(=O)O)C(=O)N[C@@H](Cc1ccccc1)C(=O)N[C@H](C(=O)N[C@@H](C)C(=O)N[C@@H](Cc1c[nH]c2ccccc12)C(=O)N[C@@H](CC(C)C)C(=O)N[C@@H](CC(C)C)C(=O)N[C@@H](CCCNC(=N)N)C(=O)N[C@@H](C)C(N)=O)C(C)C)C(=O)O
# B2: Compound 207 (peptide)
# peptide: H-H[Aib]QGTFTSDYSKYLDSK([γGlu-Palmitoyl])AARDFVAWLLRA-NH2
# SMILES: CCCCCCCCCCCCCCCC(=O)N[C@@H](CCC(=O)NCCCC[C@H](NC(=O)[C@H](CO)NC(=O)[C@H](CC(=O)O)NC(=O)[C@H](CC(C)C)NC(=O)[C@H](Cc1ccc(O)cc1)NC(=O)[C@H](CCCCN)NC(=O)[C@H](CO)NC(=O)[C@H](Cc1ccc(O)cc1)NC(=O)[C@H](CC(=O)O)NC(=O)[C@H](CO)NC(=O)[C@@H](NC(=O)[C@H](Cc1ccccc1)NC(=O)[C@@H](NC(=O)CNC(=O)[C@H](CCC(N)=O)NC(=O)C(C)(C)NC(=O)[C@@H](N)Cc1c[nH]cn1)[C@@H](C)O)[C@@H](C)O)C(=O)N[C@@H](C)C(=O)N[C@@H](C)C(=O)N[C@@H](CCCNC(=N)N)C(=O)N[C@@H](CC(=O)O)C(=O)N[C@@H](Cc1ccccc1)C(=O)N[C@H](C(=O)N[C@@H](C)C(=O)N[C@@H](Cc1c[nH]c2ccccc12)C(=O)N[C@@H](CC(C)C)C(=O)N[C@@H](CC(C)C)C(=O)N[C@@H](CCCNC(=N)N)C(=O)N[C@@H](C)C(N)=O)C(C)C)C(=O)O
# B3: Compound 202 (peptide)
# peptide: H-HSQGTFTSDYSKYLDK([γGlu-Palmitoyl])KAAHDFVEWLLRA-NH2
# SMILES: CCCCCCCCCCCCCCCC(=O)N[C@@H](CCC(=O)NCCCC[C@H](NC(=O)[C@H](CC(=O)O)NC(=O)[C@H](CC(C)C)NC(=O)[C@H](Cc1ccc(O)cc1)NC(=O)[C@H](CCCCN)NC(=O)[C@H](CO)NC(=O)[C@H](Cc1ccc(O)cc1)NC(=O)[C@H](CC(=O)O)NC(=O)[C@H](CO)NC(=O)[C@@H](NC(=O)[C@H](Cc1ccccc1)NC(=O)[C@@H](NC(=O)CNC(=O)[C@H](CCC(N)=O)NC(=O)[C@H](CO)NC(=O)[C@@H](N)Cc1c[nH]cn1)[C@@H](C)O)[C@@H](C)O)C(=O)N[C@@H](CCCCN)C(=O)N[C@@H](C)C(=O)N[C@@H](C)C(=O)N[C@@H](Cc1c[nH]cn1)C(=O)N[C@@H](CC(=O)O)C(=O)N[C@@H](Cc1ccccc1)C(=O)N[C@H](C(=O)N[C@@H](CCC(=O)O)C(=O)N[C@@H](Cc1c[nH]c2ccccc12)C(=O)N[C@@H](CC(C)C)C(=O)N[C@@H](CC(C)C)C(=O)N[C@@H](CCCNC(=N)N)C(=O)N[C@@H](C)C(N)=O)C(C)C)C(=O)O
# B4: Compound 208 (peptide)
# peptide: H-H[Aib]QGTFTSDYSKYLDSK([γGlu-Palmitoyl])AAHDFVEWLLSA-NH2
# SMILES: CCCCCCCCCCCCCCCC(=O)N[C@@H](CCC(=O)NCCCC[C@H](NC(=O)[C@H](CO)NC(=O)[C@H](CC(=O)O)NC(=O)[C@H](CC(C)C)NC(=O)[C@H](Cc1ccc(O)cc1)NC(=O)[C@H](CCCCN)NC(=O)[C@H](CO)NC(=O)[C@H](Cc1ccc(O)cc1)NC(=O)[C@H](CC(=O)O)NC(=O)[C@H](CO)NC(=O)[C@@H](NC(=O)[C@H](Cc1ccccc1)NC(=O)[C@@H](NC(=O)CNC(=O)[C@H](CCC(N)=O)NC(=O)C(C)(C)NC(=O)[C@@H](N)Cc1c[nH]cn1)[C@@H](C)O)[C@@H](C)O)C(=O)N[C@@H](C)C(=O)N[C@@H](C)C(=O)N[C@@H](Cc1c[nH]cn1)C(=O)N[C@@H](CC(=O)O)C(=O)N[C@@H](Cc1ccccc1)C(=O)N[C@H](C(=O)N[C@@H](CCC(=O)O)C(=O)N[C@@H](Cc1c[nH]c2ccccc12)C(=O)N[C@@H](CC(C)C)C(=O)N[C@@H](CC(C)C)C(=O)N[C@@H](CO)C(=O)N[C@@H](C)C(N)=O)C(C)C)C(=O)O
# B5: Compound 203 (peptide)
# peptide: H-HSQGTFTSDYSKYLDSKAAHDFVEWLK([γGlu-Palmitoyl])RA-NH2
# SMILES: CCCCCCCCCCCCCCCC(=O)N[C@@H](CCC(=O)NCCCC[C@H](NC(=O)[C@H](CC(C)C)NC(=O)[C@H](Cc1c[nH]c2ccccc12)NC(=O)[C@H](CCC(=O)O)NC(=O)[C@@H](NC(=O)[C@H](Cc1ccccc1)NC(=O)[C@H](CC(=O)O)NC(=O)[C@H](Cc1c[nH]cn1)NC(=O)[C@H](C)NC(=O)[C@H](C)NC(=O)[C@H](CCCCN)NC(=O)[C@H](CO)NC(=O)[C@H](CC(=O)O)NC(=O)[C@H](CC(C)C)NC(=O)[C@H](Cc1ccc(O)cc1)NC(=O)[C@H](CCCCN)NC(=O)[C@H](CO)NC(=O)[C@H](Cc1ccc(O)cc1)NC(=O)[C@H](CC(=O)O)NC(=O)[C@H](CO)NC(=O)[C@@H](NC(=O)[C@H](Cc1ccccc1)NC(=O)[C@@H](NC(=O)CNC(=O)[C@H](CCC(N)=O)NC(=O)[C@H](CO)NC(=O)[C@@H](N)Cc1c[nH]cn1)[C@@H](C)O)[C@@H](C)O)C(C)C)C(=O)N[C@@H](CCCNC(=N)N)C(=O)N[C@@H](C)C(N)=O)C(=O)O
# B6: Compound 206 (peptide)
# peptide: H-H[Aib]QGTFTSDYSKYLDSK([γGlu-Palmitoyl])AAHDFVEWLLRA-NH2
# SMILES: CCCCCCCCCCCCCCCC(=O)N[C@@H](CCC(=O)NCCCC[C@H](NC(=O)[C@H](CO)NC(=O)[C@H](CC(=O)O)NC(=O)[C@H](CC(C)C)NC(=O)[C@H](Cc1ccc(O)cc1)NC(=O)[C@H](CCCCN)NC(=O)[C@H](CO)NC(=O)[C@H](Cc1ccc(O)cc1)NC(=O)[C@H](CC(=O)O)NC(=O)[C@H](CO)NC(=O)[C@@H](NC(=O)[C@H](Cc1ccccc1)NC(=O)[C@@H](NC(=O)CNC(=O)[C@H](CCC(N)=O)NC(=O)C(C)(C)NC(=O)[C@@H](N)Cc1c[nH]cn1)[C@@H](C)O)[C@@H](C)O)C(=O)N[C@@H](C)C(=O)N[C@@H](C)C(=O)N[C@@H](Cc1c[nH]cn1)C(=O)N[C@@H](CC(=O)O)C(=O)N[C@@H](Cc1ccccc1)C(=O)N[C@H](C(=O)N[C@@H](CCC(=O)O)C(=O)N[C@@H](Cc1c[nH]c2ccccc12)C(=O)N[C@@H](CC(C)C)C(=O)N[C@@H](CC(C)C)C(=O)N[C@@H](CCCNC(=N)N)C(=O)N[C@@H](C)C(N)=O)C(C)C)C(=O)O
# B7: Compound 262 (peptide)
# peptide: H-HSQGTFTSDYSKYLDSK([γGlu-Palmitoyl])AAHDFVEWLLRA-NH2
# SMILES: CCCCCCCCCCCCCCCC(=O)N[C@@H](CCC(=O)NCCCC[C@H](NC(=O)[C@H](CO)NC(=O)[C@H](CC(=O)O)NC(=O)[C@H](CC(C)C)NC(=O)[C@H](Cc1ccc(O)cc1)NC(=O)[C@H](CCCCN)NC(=O)[C@H](CO)NC(=O)[C@H](Cc1ccc(O)cc1)NC(=O)[C@H](CC(=O)O)NC(=O)[C@H](CO)NC(=O)[C@@H](NC(=O)[C@H](Cc1ccccc1)NC(=O)[C@@H](NC(=O)CNC(=O)[C@H](CCC(N)=O)NC(=O)[C@H](CO)NC(=O)[C@@H](N)Cc1c[nH]cn1)[C@@H](C)O)[C@@H](C)O)C(=O)N[C@@H](C)C(=O)N[C@@H](C)C(=O)N[C@@H](Cc1c[nH]cn1)C(=O)N[C@@H](CC(=O)O)C(=O)N[C@@H](Cc1ccccc1)C(=O)N[C@H](C(=O)N[C@@H](CCC(=O)O)C(=O)N[C@@H](Cc1c[nH]c2ccccc12)C(=O)N[C@@H](CC(C)C)C(=O)N[C@@H](CC(C)C)C(=O)N[C@@H](CCCNC(=N)N)C(=O)N[C@@H](C)C(N)=O)C(C)C)C(=O)O
# B8: Compound 209 (peptide)
# peptide: H-H[Aib]QGTFTSDYSKYLDSKAAHDFVEWLLK([γGlu-Palmitoyl])A-NH2
# SMILES: CCCCCCCCCCCCCCCC(=O)N[C@@H](CCC(=O)NCCCC[C@H](NC(=O)[C@H](CC(C)C)NC(=O)[C@H](CC(C)C)NC(=O)[C@H](Cc1c[nH]c2ccccc12)NC(=O)[C@H](CCC(=O)O)NC(=O)[C@@H](NC(=O)[C@H](Cc1ccccc1)NC(=O)[C@H](CC(=O)O)NC(=O)[C@H](Cc1c[nH]cn1)NC(=O)[C@H](C)NC(=O)[C@H](C)NC(=O)[C@H](CCCCN)NC(=O)[C@H](CO)NC(=O)[C@H](CC(=O)O)NC(=O)[C@H](CC(C)C)NC(=O)[C@H](Cc1ccc(O)cc1)NC(=O)[C@H](CCCCN)NC(=O)[C@H](CO)NC(=O)[C@H](Cc1ccc(O)cc1)NC(=O)[C@H](CC(=O)O)NC(=O)[C@H](CO)NC(=O)[C@@H](NC(=O)[C@H](Cc1ccccc1)NC(=O)[C@@H](NC(=O)CNC(=O)[C@H](CCC(N)=O)NC(=O)C(C)(C)NC(=O)[C@@H](N)Cc1c[nH]cn1)[C@@H](C)O)[C@@H](C)O)C(C)C)C(=O)N[C@@H](C)C(N)=O)C(=O)O
# Molecular target: human glucagon-like peptide 1 receptor (GLP-1R) (human, UniProt P43220 24-463)
# Assay: cell-based or functional assay
row,"EC50 (nM) GLP-1R; cAMP content, HEK293 cells expressing human GLP-1R [nM]",Binder
1,0.15,B1
2,0.12,B2
3,0.2,B3
4,0.11,B4
5,0.57,B5
6,0.09,B6
7,0.11,B7
8,0.27,B8

# Molecular target: human glucagon receptor (Glucagon-R) (human, UniProt P47871 26-477)
# Assay: cell-based or functional assay
# Chain of human glucagon receptor (Glucagon-R) (P47871 26-477): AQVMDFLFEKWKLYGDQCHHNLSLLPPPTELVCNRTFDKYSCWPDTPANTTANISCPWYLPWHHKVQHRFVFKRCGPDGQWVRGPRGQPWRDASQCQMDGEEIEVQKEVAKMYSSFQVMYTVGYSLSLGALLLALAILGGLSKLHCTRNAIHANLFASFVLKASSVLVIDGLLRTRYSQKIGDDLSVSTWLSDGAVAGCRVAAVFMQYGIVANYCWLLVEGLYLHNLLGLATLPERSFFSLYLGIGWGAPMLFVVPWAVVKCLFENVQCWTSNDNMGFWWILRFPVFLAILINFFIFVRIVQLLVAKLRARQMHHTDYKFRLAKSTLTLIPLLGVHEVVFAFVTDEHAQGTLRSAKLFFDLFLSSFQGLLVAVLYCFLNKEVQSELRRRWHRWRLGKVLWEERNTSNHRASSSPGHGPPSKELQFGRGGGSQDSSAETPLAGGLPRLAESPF
row,"EC50 (nM) GuR; cAMP content, HEK293 cells expressing the human glucagon receptor [nM]",Binder
1,0.63,B1
2,0.17,B2
3,0.13,B3
4,0.16,B4
5,0.22,B5
6,0.16,B6
7,0.12,B7
8,0.27,B8
